Laboratory results taken from the nanobody polyreactivity screen of Harvey et al. (2022).

Assay: yeast display, Sf9 membrane polyspecificity reagent, FACS + sequencing; frameworks hold sequencing errors
Procedure, shortened: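 Using colony PCR, genes from sorted yeast display clones were amplified, then sequenced on MiSeq at 2 × 250 and filtered by CDR length. The clones had been stained with 10% biotinylated, detergent-solubilized Sf9 membrane reagent for 1 hour at 4 °C and sorted by FACS into low and high (top ~1%) gates on anti-HA and streptavidin fluorescence. Polyreactivity labels come from the gate of origin.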

Sequence | polyreactivity (PSR sort gate)
QVQLVESGGGLVQAGGSLRLSCAASGFTFPYYAMGWYRQAPGKERELVAAISTRGGSTYYADSVKGRFTISRDNAKNTVYLQMKSLKPEDTAVYYCAADPGRVTRVGVRYYYWGQGTQVTVSS | high polyreactivity
QVQLVESGGGLVQAGGSLRLSCAASGFTFPYYAMGWYRQAPGKERELVAAISWDGGITYYADSVKGRFTISRDNAKNTVYLQMNSLKPEDTAVYYCNVEGWYDYDYWGQGTQVTVSS | high polyreactivity
QVQLVESGGGLVQAGGSLRLSCAASGFTFPYYAMGWYRQAPGKERELVADITSGGGTNYADSVKGRFTISRDNAKNTVFLQMNSLKPEDTAVYYCAADAYHQGMDYWGQGTQVTVSS | low polyreactivity
QVQLVESGGGLVQAGGSLRLSCAASGFTFQDYAMGWYRQAPGKERELVAAISTSDGNTYYADSVKGRFTISRDNAKNTVYLQMNSLKPEDTAVYYCAAQRNYGWVKFYYWGQGTQVTVSS | high polyreactivity
QVQLVESGGGLVQAGGSLRLSCAASGFTFQWYAMGWYRQAPGKERELVAGITSGASTNYADSVKGRFTISRDNAKNNVYLQMNSLKPEDTAVYYCAAGYKSRYYRNSGYYWGQGTQVTVSS | high polyreactivity
QVQLVESGGGLVQAGGSLRLSCAASGFTFQWYAMGWYRQAPGKERELVAGITSGASTNYADSVKGRFTISRDNAKNTVYLQMNSLKPEDTAVYYCAARRWREGARYSYWGQGTQVTVSS | high polyreactivity
QVQLVESGGGLVQAGGSLRLSCAASGFTFQYYAMGCYRPAPGKERELVATISSTDNTYYADSVKGRFTISRDNAKNTVYLQMFSLKPEDTAVYYCNAAYVYGYQARGGYWGQGTQVTVSS | high polyreactivity
QVQLVESGGGLVQAGGSLRLSCAASGFTFQYYAMGWYRQAPGKERELVAAITWSGTSTYYADSVKGRFTISRDNAKNTVYLQMNSLKPEDTAVYYCNKYSPYITYDYDYWGQGTQVTVSS | high polyreactivity
QVQLVESGGGLVQAGGSLRLSCAASGFTFRAYAMGWYRQAPGKERELVATITRSGGSTFYADSVKGRFTISRDNAKNTVYLQMNSLKPEDTAVYYCAAVYRFAFRYAWYKYDYWGQGTQVTVSS | high polyreactivity
QVQLVESGGGLVQAGGSLRLSCAASGFTFRDNAMGRYRQAPGKERELVAAITWDGGSTYYADSVKGRFTISRDNEKNTVYLQMNSLKPEDTAVYYCAASRYYPRYFKRYYYWGQGTQVTVSS | high polyreactivity
QVQLVESGGGLVQAGGSLRLSCAASGFTFRDYAMGWYRQAPGKERELVAAISRSGDSTYYADSVKGRFTISRDNAKNTVYLQMNSLKPEDTAVYDYAAKRRYTTYDYWGQGTQVTVSS | high polyreactivity
QVQLVESGGGLVQAGGSLRLSCAASGFTFRGNAMGWYRQAPGKERELVAAITSSDDSTYYADSVKGRFTISRDNAKNTVYLQMNSLKPEDTAVYYCAAVANGYWTYEYWGQGTQVTVSS | low polyreactivity
QVQLVESGGGLVQAGGSLRLSCAASGFTFRGYAMGWYRPAPGKERELVAAITVRGGRTYYADSVKGRFTISRDNAKNTVYLQMNSLKPEETALYYCAKPVDRYTYSLYQQYDYWGQGTQVTVSS | high polyreactivity
QVQLVESGGGLVQAGGSLRLSCAASGFTFRGYAMGWYRQAPGKERELVAAITAGGGSTSYADSVKGRFTISRDNAKNTVYLQMNSLKPEDTGVYYCARRPGTRTYLSKWGSKYDYWGQGTQVTVSS | high polyreactivity
QVQLVESGGGLVQAGGSLRLSCAASGFTFRGYVMGWYRQAPGKERELVAAITNIGTSTYYADSVKGRFTISRDNAKNTVYLQMNSLNPEDTAVYYCAARLRSIFYDWGLGTQVTVSS | low polyreactivity
QVQLVESGGGLVQAGGSLRLSCAASGFTFRHYAMGWYRQAPGKARQLVAAITKSGDSTYYADSVKWRFTISRDIAKKTVYLQMNSLNPEDTEVYYCATPYTLSRADNYWGQGTQVTVSS | low polyreactivity
QVQLVESGGGLVQAGGSLRLSCAASGFTFRIYAMGWYRQAPGKERELVAAISWSGGSTYYADSVKGRFTISRDNAKNTVYLQMNSLKPEDTAVYYCATDSHRSQRHYAYDGDYWGQGTQVTVSS | high polyreactivity
QVQLVESGGGLVQAGGSLRLSCAASGFTFRKYAMGWYRPAPGKERELVAAITANGGRTYYADSVKGRFTISRDNAKNTVYLQMNSLKPEDTAVYYCARDWGKSEYDYWGQGTQVTVSS | high polyreactivity
QVQLVESGGGLVQAGGSLRLSCAASGFTFRKYAMGWYRQAPGKERELVAVINIVGSTYYADSVKGRFTISRDNAKNTVYLQMNSRKPEDTAVYYCAADWSYLLKYYWYGGFNYWGQGTQVTVSS | high polyreactivity
QVQLVESGGGLVQAGGSLRLSCAASGFTFRLYAMGWYRQAPGIERELVAAISSGGRTYYADSVKGRFTISRDNAKNTVYFQMNSLKPEDTAVNYCAVYPRDAERYGYWGQGSQVTVSS | high polyreactivity
QVQLVESGGGLVQAGGSLRLSCAASGFTFRLYAMGWYRQAPGKERELVAAISSRGTTTYYADSVKGRFTNSRDNAKKTGYLQMNSLKPEDTAVYNCNKEYTSYGYDLEYDYWGQGTQVTVSS | low polyreactivity
QVQLVESGGGLVQAGGSLRLSCAASGFTFRNNAMGWYRQAPGKERELVAAISKRGSSTYYADSVKGRFTISRDNAKNTVYLQMNSLKPEDTAVYYCAASWLGASGIRYDYWGQGTQVTVSS | high polyreactivity

Sequence | polyreactivity (PSR sort gate)
QVQLVESGGGLVQAGGSLRLSCAASGFTFRQYAMGGYGQAPGKEREWVASIRNGGSTNYADSVKGRFTISRDNAKNTDYFQMITLKPEDTALYYCSQRHSRTNMYYWGQGTQVTVSS | high polyreactivity
QVQLVESGGGLVQAGGSLRLSCAASGFTFRQYAMGWYRQAPGKERELVAAISRSGSRTYYADSVKGRFTISRDNAKNTVYLQMNSLKPEDTAVYYCNAVFSTFTGEYYWGQGSQVTVSS | high polyreactivity
QVQLVESGGGLVQAGGSLRLSCAASGFTFRRNGRGWYRPAPGKERELVAAIRGSDGSTYYADSVKGRFTISRDTAKNTVYLLMNSLKPADTAVYYCIVVGKGLYRKMGYWGQGTQVTVSS | high polyreactivity
QVQLVESGGGLVQAGGSLRLSCAASGFTFRRYAKGWYRQATGKEREFVAAISIRGGRTNYADSVKGRFTISRDNAKNTVYLQMNSLKPEDTAVYYCAADGVYALDVESDYWGQGTQVTVSS | high polyreactivity
QVQLVESGGGLVQAGGSLRLSCAASGFTFRRYAMGWYRQAPGKERELVAAISRRGVTTYYADSVKGRFTISRDNAKNTVYLQMISLKPEDTAVYYCAADHNPSIGDDSWGQGTQVTVSS | high polyreactivity
QVQLVESGGGLVQAGGSLRLSCAASGFTFRRYAMGWYRQAPGKERELVAAISYSGGSTNYADSVKGRFTISRDNAKNTVYLQMNSLKPEDTAVYYCATTSRAWGRGYDYWGQGTQVTVSS | low polyreactivity
QVQLVESGGGLVQAGGSLRLSCAASGFTFRRYAMGWYRQAPGKETELVAVITTAGSTNYADSVKGRFTISRDNAKNTVHLQMNSLIPEDTAVYYCATDNGTRKRRYDYWGQGTQVTVSS | low polyreactivity
QVQLVESGGGLVQAGGSLRLSCAASGFTFRRYDMGWYRQAPGKERELVAAITASGGNTYYADSVKGRFTISRDNAKNTVYLQMNSLKPEDTAVYYCAARQYRYKYDYWGQGTQVTVSS | high polyreactivity
QVQLVESGGGLVQAGGSLRLSCAASGFTFRSNAMGWYRQAPGKERELVAAISYSGDSTYYADSVKGRFTISRDNAKNTVYLQMNSLKPEDTAVYYCNAVGSGYRSWYDYWGQGTQVTVSS | high polyreactivity
QVQLVESGGGLVQAGGSLRLSCAASGFTFRSNAMGWYRQAPGKERELVAAITRGGGSTYYADSVKGRFTISRDNEKNTVYLQMNSLKPEDTAVYYCAAGGFRTSRRDYWGQGTQVTVSS | high polyreactivity
QVQLVESGGGLVQAGGSLRLSCAASGFTFRSYAMGWYRQAPGKEREFVAAINGRSGSTYADSVKGRFTISRDNAKNTVYLQMTSLKPEDTAVYYCAARVRRGSTQAQYYYWGQGTQVTVSS | high polyreactivity
QVQLVESGGGLVQAGGSLRLSCAASGFTFRSYTMGWYRQAPGKERELVARITRSCGNTYYADSVKGRFTISRDNAKNTVYVQMNSLKPEDTEGYYCASVYWGKYSAGNLLEYDYWGQGTQVTVSS | high polyreactivity
QVQLVESGGGLVQAGGSLRLSCAASGFTFRSYVMGWYRQAPGKERELVASISSGGITKYADSVKGRFTISRDNAKNTVYLQMNSLKPEDTAVYYCNARTYSNTVLNYGLQYGYDYWGQGTQVTVSS | high polyreactivity
QVQLVESGGGLVQAGGSLRLSCAASGFTFRTYAKGWYRQAPAKERELVADISGSGGSTYYADSVKGRFTISRDNAKNTVYLQMNSLKPEDTAVYYCAADYASWSNWGYEYWGQGTQVTVSS | high polyreactivity
QVQLVESGGGLVQAGGSLRLSCAASGFTFRTYAMGRYRQAPGTERELVAAINVSGGTYYADSVKGRFTISRDNAKNTVYLQMNSLKPEDSAVYYCTANRFRTGFDYWGQGTQVTVSS | low polyreactivity
QVQLVESGGGLVQAGGSLRLSCAASGFTFRTYAMGWYRQAPGKERELVAAITGSGGSTYYADSVKGRFTISRDNAKNTVYLQMNSLKPEDTAVYYCNAVERSAFRGVRFDYDYWGQGTQVTVSS | high polyreactivity
QVQLVESGGGLVQAGGSLRLSCAASGFTFRTYAMGWYRQAPGKEREYVAAINGRSGSTYADSVKGRFTISRDNAKNTVYLQMISLKPEDTAVYYCAARVRRGSTQAQFYYWGQGTQVTVSS | high polyreactivity
QVQLVESGGGLVQAGGSLRLSCAASGFTFRVYAMGWYRPAPGKERELVAAISVRGDSTYYADSVKGRFTISRDNAKNTVYLQMNSLKPEDTAVYYCNAALLGKQYYSNPNYDYWGQGTQVTVSS | high polyreactivity
QVQLVESGGGLVQAGGSLRLSCAASGFTFRVYAMGWYRQAPGKERELVAAITNSGGNTYYADSVKGRFTISRDNAKNTVYLQMNSLKPEDTAVYYCNRRYRYRFGYWGQGTQVTVSS | high polyreactivity
QVQLVESGGGLVQAGGSLRLSCAASGFTFRVYAMGWYRQAPGKERELVAAITRGGSTKYADSVKGRFTISRDNAKNTVYLQMNSLKPEDTAVYYCAARYNGKLNWGQGTQVSVSS | high polyreactivity
QVQLVESGGGLVQAGGSLRLSCAASGFTFRWYAMGWYRQAPGKERELVAAITSSGGSTYYADSVKGRFTISRDNAKNTVYLQMNSLKPEDTAVYYCNKRFLDLSYHDYDYWGQGTQVTVSS | high polyreactivity
